This is an account of results in publication doi:10.1101/2023.03.09.531943 (bioRxiv, 2023).

Sequences and labels used below:
B1: recombinant CML13 (natural protein)
chain: MGKDGLSDDQVSSMKEAFMLFDTDGDGKIAPSELGILMRSLGGNPTQAQLKSIIASENLSSPFDFNRFLDLMAKHLKTEPFDRQLRDAFKVLDKEGTGFVAVADLRHILTSIGEKLEPNEFDEWIKEVDVGSDGKIRYEDFIARMVAK
B2: IQD14-IQ1+2 synthetic peptide, residues 322-367 (peptide)
peptide: not shown
modifications: N-terminal acetylation; C-terminal amidation
B3: recombinant CML14 (natural protein)
chain: B1 chain with G2S, D8N, Q47E, A48S, A55T, S56T, E117Q, N119S
B4: recombinant IQD14 (residues 307-418), all three putative IQ domains (domain or fragment)
chain: RREIVYRPEPTLPVQHASATKIQGAFRGYMARKSFRALKGLVRLQGVVRGYSVKRQTINAMKYMQQVVRVQSQIQSRRIKMLENQAQVEKDEAKWAASEAGNDNWDDSVLTK

Residue numbers refer to the chain shown, from its start.

The assay “recombinant CML13” addresses B1. Put plainly: ITC. Background: ITC needs no label: the signal is the heat of the interaction.
For assay [1], the target named is recombinant CaM (petunia CaM81) (petunia, UniProt P62199 1-149). As to the kind of experiment: ITC.
For the assay “recombinant CML14”, the target named is B3. As to the kind of experiment: ITC.
For assay [2], the target named is B2. As to the kind of experiment: AUC.
The target in assay [3] is biotinylated CaM (petunia CaM81) (petunia, UniProt P62199 1-149, biotin, covalently conjugated (biotin-NHS ester), sites not stated). Put plainly: far-Western, overlay or dot blot.
The target of the next assay is T1, biotinylated CML13 (Arabidopsis thaliana, UniProt Q94AZ4 1-148, biotin, covalently conjugated (biotin-NHS ester), sites not stated).
T1 sequence: B1 chain
Put plainly: far-Western, overlay or dot blot.

Another assay has as its target T2, biotinylated CML14 (Arabidopsis thaliana, UniProt Q8VZ50 1-148, biotin, covalently conjugated (biotin-NHS ester), sites not stated).
T2 sequence: B1 chain with G2S, D8N, Q47E, A48S, A55T, S56T, E117Q, N119S
As to the kind of experiment: far-Western, overlay or dot blot.

Ac-QHASATKIQGAFRGYMARKSFRALK-NH2 [IQD14-IQ1 synthetic peptide, residues 322-346]: the Kd with recombinant CML13 is 222 nM; in assay [1] it was 7 nM; with recombinant CML14, 116 nM.

Take B1: the “stoichiometry N” value in assay [2] turned out to be 1.

As to B2, the binding result (in the assay with recombinant CML13; in assay [1]; with recombinant CML14) was “binds” throughout.

As to B3, the “stoichiometry N” value in assay [2] is 1.

With Ac-ALKGLVRLQGVVRGYSVKRQTINA-NH2 [IQD14-IQ2 synthetic peptide, residues 344-367], the binding result in assay [1] is “binds”.

On to B4, for which the binding result (in assay [3]; in the assay with biotinylated CML13; with biotinylated CML14) was “binds” throughout.

As a reminder, the Kd is the free concentration of one partner at which half of the binding sites on the other are occupied at equilibrium, for simple one-to-one binding. As usually defined, the stoichiometry N is a count of units in the complex or per binding partner.
